According to IntAct's records for PubMed 12393858:

Biological target: ipp2_human PPP1R2 (UniProt P41236)
Sequence (P41236 whole entry): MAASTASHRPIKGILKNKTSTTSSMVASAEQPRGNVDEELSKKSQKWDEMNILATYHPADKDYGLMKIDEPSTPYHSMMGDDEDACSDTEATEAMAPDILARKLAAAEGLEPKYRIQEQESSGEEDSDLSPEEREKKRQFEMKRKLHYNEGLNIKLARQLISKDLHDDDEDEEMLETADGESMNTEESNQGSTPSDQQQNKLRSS

For “Serine/threonine-protein kinase LMTK2 (Homo sapiens), Q8IWU2 V1356A;F1358A”, the “effect of a mutation on the interaction” value was “disrupting interaction”.
